# Test: soluble on expression in E. coli; label from the status in PepcDB or PDB records
row,Sequence,soluble on expression in E. coli
1,MGSSHHHHHHSSGLVPRGSHMVESKNTELSQGTWLNKPKSVFQEAGKVTLETDEKTDFWRETFYGFTRDSGHFLGVETGSAFTAQVRVQGSYESLYDQAGIMVRIDDGHWLKAGIEISDGHAMLSSVLTNGKSDWSTAVYGGNARDFWLRVTVEKGVLRIQVSSDKKTWPLVRLAPFPTSDHYLVGPMACTPERGGLKVTFSEWSLTAPLGKALHDLS,soluble
2,MSKATTPGDQPKVSEMDFYQLLGVEKMASEAEIKSAYRKLALKYHPDRNPNDAHAQEEFKKVSIAYSVLSDPNKRRQYDVSGPSENQLDFEGFDVSEMGGVGRVFGALFSKLGVPIPTQIVPKVLAQARHICMGQECDVQARQLPPGETVTSSVSKQHAHFYEINIQEEHRKNGVAIICKSSSSKFKLVLFDKEGGVRMIQESGKRGKAGTQADMFFVPYNVANIQEFNAMKYHLEDKETPLAFHYLDSFEMQTATLLETRKHYIAVYGDNWISDVKYSITFLPVEPSAVEQLNEIQDTEKSISIIKKEMLDFQREFTEAKRKYDEAVAKLKVQDDTILKALAHREELYNEVLQKSQEPYNKKVSPSKSSGGLLGWFK,not soluble
3,MLVAPFASQLPFVEETLHSSYQALQWGKNIFAIAHKTLSARLLNTVFPTEERTQPLSPELQAWLKERYEALLQQDWQDAAAGFYPATLLFDAPWEEFLRFYPLLLLDLPQMWQRARSRQFQEFAHNVRLEDYPQYYRQNFHYQTDGYLSDTSANLYDIQVELLFGGTADAMRRRVIAPIAQQVVAHPPTPPLRILDVACGTGRTLKQLRYAFPGAVLFGLDLSPAYLRKANALLATQTGALPQLIQGNAESLPYVDSYFSAITCVFLFHELPAPVRQNVIHECARVLQPGGIFVICDSIQSLDSPEQRPMMENFANLFHEPFYRNYIEDDLNLRLEKAGLVVKEVQHHFMSKYWVAVKPSLEHHHHHH,not soluble
4,MGSDKIHHHHHHMAEQMRRVARLFGDWPETIIWTCLEGTMGDIYVDDSQSPQSALALYGRQSFFGFLAGQPHRDLLKICEGKNIILVPQNQAWSDLIEEVYGDGVRFFTRYATKKDTEFDLGHLQKLVDDLPESFDMKLIDRNLYETCLVEEWSRDLVGNYIDVEQFLDLGLGCVILHKGQVVSGASSYASYSAGIEIEVDTREDYRGLGLAKACAAQLILACLDRGLYPSWDAHTLTSLKLAEKLGYELDKAYQAYEWR,not soluble
5,KTISLYKTKIPQDKTENVDAFLVTDSELISKLEKAKNKKEETKASGKSASARVAVQATQKKQSNEKQIVGYTTTSALSEDGKHIFKLGKLNSENYERKIIVGATVETLEQSTTLQSEEAIVLAAPGKYKDSDQKRVMITQGPNLIGVHANTKENEETKKFVNW,not soluble
6,SPNPPKLTKQMNAIIDTVINYKDSSGRQLSEVFIQLPSRKELPEYYELIRKPVDFKKIKERIRNHKYRSLGDLEKDVMLLCHNAQTFNLEGSQIYEDSIVLQSVFKSARQ,soluble
7,MLTIIKTILDVIVGVKERDYVKNTFNQLLKEKNITNYQYIRTAGNQILIDDRDILYVIHDKGWVSRGYGRITDIELSIDDSVAFQSSLSSATGRAIAGGVLAGGVGAIIGGVTGRKNGKKIVHRITLTISFNTPDRPYARVTFLDNQQGVDIYSDEYKRAEEDALYWSKLISSLMN,not soluble
8,MSLAMKKHLFTLTLSSVLAIPAVSHAEFKGGFADIGIHYLDWTSRTTEKSSTKSHKDDFGYLELEGGANFSWGEMYGFFDWENFYNDRHDKPGSEQRYTFKNTNRIYLGDTGFNLYLHAYGTYGSANRVNFHDDMFLYGIGYNFTGSGWWFKPFFAKRYTDQTYYTGDNGYVAGWVAGYSFMLGSEKFTLTNWNEYEFDRDATYAAGNGGKEGLNGAVALWWNATSHITTGIQYRYADDKLGEDFYQDAIIYSIKFNFEGHHHHHH,not soluble
9,MTNSIHEMIRASFKCEDMVKCVLGLKSLDIEAYKALLMHGPQTAEKLGEILNRERSTAYRSLQNLIACGIVYRETRSIESGGYYYEYVAIEPQEMKRMVKKNVDEWYNQMNELIEKMDDKVNALVTRLEDDEAKQK,not soluble
10,MGSDKIHHHHHHMRVIKVKTISETLDYISKHTASVARFGDGEIDIIAGNSIPYQVYASALAARLERLLNRQSNEKLVICVSDVFDNLGRYNDFSQQFWRDHLYQYNDLYQKNCQAEWYGSTFISRPYMDLLDKSLSVTYFEQLKALWKNKDILIVEGETSRSGVGNDLFNDANTISRIICPSKDAFSSFYEIKETILEHSRGKLILLMLGPTAKLLAEDLSQLGHQAIDLGHIDSEYEWFKMGAVSKVKLSHKHTAEHNFDEDITLIEDNSYENQIVSKIGTSDRQYALTVTLTDDIWELEHLLQRCPNTDFHIAAPVYCSDRLKQLVGYPNYYLHEAITEEQFEVLLLNSDIYLDINHGEEVWNVVDRCITEGKTIYGIRRARKDNQYISFERTMDDFEYLCDTIKQNR,not soluble
11,MSSQQQESEASGYNTSASSEFGSLEDSHQFVSPVTRHASKRRAVENVDHLDELMKSSMVLSPEKRLRLNTSNDSNLVRNTARSPDSSMNGRPQTRRSTSSDIEISPRVRAMRSTSGSSMDLVRTVSSFCTDSISPKFFTNHGSTTRKRTENGSIYSRHRLGATFSPLVAGAKRKMATPSQSLKRQEKQSPLESRHGGLRSRGTPQRKLLLCDRLKVLN,not soluble
12,MGSDKIHHHHHHVAKSIAGGVRPGIIIDIEHRLLKQIIVGKQKAAASMFDDLDRELENDANKLAIERDAVFERLSKQIQARQVYEAVSKQLITTVNSTLDNQLASPELLIQHSGINASQMLMLELLQQKNLDLSRLRLLIADLPWLARDLTNMVNSPSFRHKRQQRSDVKVTEIKLVLNFIGVENLRLLIPYYCLRNWLPTGHANLLWTTRKLWRYAMVTGIAAKALAQLNEQDMATAYTSSLLYQLGVSVVLKNGAKVYESIWGNWLREASASRDKELHDAVLATEFPAEDIYQQVLQHAHTLNWRLPELLDFSASGLTQTQRELDTCLSYSELSTEAALVARASCYAKVLMLDEMRLISPKEKQMMFDYYQLSEQEQIRLKGQNYRKLDLY,not soluble
13,MAKDGGVSCLRRSEMIGIGIGELESPPLDSDQVHVLAVDDSLVDRIVIERLLRITSCKVTAVDSGWRALEFLGLDDDKAAVEFDRLKVDLIITDYCMPGMTGYELLKKIKESTSFKEVPVVIMSSENVMTRIDRCLEEGAEDFLLKPVKLADVKRLRSYLTRDVKVAAEGNKRKLTTPPPPPPLSATSSMESSDSTVESPLSMVDDEDSLTMSPESATSLVDSPMRSPGLA,not soluble
14,MGSDKIHHHHHHMEYIVRTHKIGIYEKALPKNLSWQDRLSIAKACGFDFVEISIDETDERLARLDWSKAERIELVTAIISTGITIPSMCLSGHRRFPFGSRDEATRQKAFEIMKKAIQLAVDLGIRTIQLAGYDVYYEEQDEGTIQRFQQGLEWAVKLAASHQVTIAVEIMDTQFISSISRWKKWDNIIRSPWFTVYPDLGNLSAWNENVSEELKLGIDKISAIHLKDTYKVTTTSKGQFRDVPFGAGCVDFVQCFRILSELNYRGAFLVEMWTEKAEEPITEIINARRWIEQKMKEGGFQC,not soluble
15,KELWKLRKLRNHFSIQEEAELLVHSDSVGKGKVFCEKVAEESGVLAENPGFDRWQNSINPAHSDAEILDMYDSMVVSQQDKLATKVVSQHATES,not soluble
16,MDFKDILRQLSERIEKLRDNLQTEEATKNALIMPFIQAMGYDVFNPLEVIPEFTCDIGTKKGEKIDYAIMRDNEPIILIECKHWRDTLTLADNQLLRYFHVSSAKFGMLTNGIIYRFYTDLDQANKMDEKPFLEVNMLDLRDNQIEELKQFHKSYFDVDKILSTASELKYMKELKDLILAEMNEPSEQFVRMLAKQVYDGIITAKIFEQFKDLTQKSFKSVINDLITARFKTVMDKSKEVAASEEQSQEQDDSNEPLVVTTEAEMEAYMIVKGILRKYINIDRIASRDTQSYFSVLLDDNNRKPICRFYFNTANKYLATFEEGKKEVKTLLNSLDDLFMHEKSIAKSLALYVDTEESALIVKSKE,soluble
17,ISEFDYSARFVLSDGKRKILRYPNPTNSLSSDVYYNGQILGDIWGYKTVGIAQTQEEMNAHLANGGTPNWGTNWGAGDVMYANLDGKEGVNNGSNTLEDHGDLTIIGNNTPRYNFGLTLTGAWKGFDFSVFLQGVMKRDYWLDGPYFWGANGGLWQSTAFKEHMDYWRPEGDPLGANTNAYYPKPYFNTDKNQKVQSGYLQNAAYCRLKNAQIGYTLPKTWTRKAAMESVRVYVSGDNLVTFSGISGVFDPELLGSDWGDGKLYPLQRTISIGLNVNF,not soluble
18,PPAVSDIRVTRSSPSSLSLAWAVPRAPSGAVLDYEVKYHEKGAEGPSSVRFLKTSENRAELRGLKRGASYLVQVRARSEAGYGPFGQEHHSQTQLD,soluble
19,MGSDKIHHHHHHMASPTVRRRQLSAILREMRKASGLSLDAVAARLEWSRAKVGHIETGQRKKPSVLEVKALMAEYGVTPEDPRYETVLMLTRQAQARGWWRRYDDLFPGSYIELEAEASEIRTYEAFVVPGLLQTPGYTRLLQQARLDRDPDDVERAVESRRKRQEIFDRTSPPAVYAIIEEHALERLRGTPDVLAEQVAHLLHMAGRNSVTLQVLRTRVGVHAGAMGPFVILDFPEPASPVVYLETYTDGLFLERREEIDQYRSLWDRIRDAALPPDRTVEFLRSLLTL,not soluble
20,MTSTGPETSETPGATTQRHGFGIDVGGSGIKGGIVDLDTGQLIGDRIKLLTPQPATPLAVAKTIAEVVNGFGWRGPLGVTYPGVVTHGVVRTAANVDKSWIGTNARDTIGAELGGQQVTILNDADAAGLAETRYGAGKNNPGLVVLLTFGTGIGSAVIHNGTLIPNTEFGHLEVGGKEAEERAASSVKEKNDWTYPKWAKQVIRVLIAIENAIWPDLFIAGGGISRKADKWVPLLENRTPVVPAALQNTAGIVGAAMASVADTTH,not soluble
21,MTQKEISIIHPRPSSIVAALYTLRDLNVDVAILHGPPGCSFKHARLLEEDGIHVVTTGLDENGFVFGGHDKLVQVINKSIELFNPKILGVVGTCASMIIGEEMHEAVLEANPDIPVIEVEVHAGYHNNTKGVIFALESALDAGIIDHKEFERQEYLEHHHHHH,not soluble
22,QVQLQQPGAELVKPGTSVKLSCKASGYNFTSYWINWVKLRPGQGLEWIGDIYPGSGITNYNEKFKSKATLTVDTSSSTAYMQLSSLASEDSALYYCAGQYGNLWFAYWGQGTLVTVS,soluble
23,MGSDKIHHHHHHMGKSIRKIVNWKQYNQALVNRGSLTFWVDEAAVNTWYCHEHHGGRGRGFSYSDVAIETALMVKGIFNLSLRALEGFLNSLFTLMSVPLKSPDYTSISKRAKTVNIKYRNPSRGPIAHVVVDATGLKVFGEGEWKTRKHGSEKRRTWRKLHLAIDASTHEVVAAEVSLVSVGDNEVLPTLLNPLRRKITQVSADGAYDTKGCYQLLRRKGCKATIPPRSNAGLWEKRHPRNEAVEALKAGQLKHWKIDNGYHQRSLAETAMGRYKQLNSPMLSLRDYNGQVAEALAGVKAMNKVIRLGMPVRQQVA,not soluble
24,MGSDKIHHHHHHMDPIEFIQKSASSIASTMHKLKLKYNPFSEKPIRGNTKFFVGRVSELREIGEILGSALHGSVANAAIVGTKGIGKSSMLNIIYYATKKQGHWVVEMTASQVTPRQFLIQLLYNILTENIITMSGTIKSDYMEHSSRILDMYRKLNNYGDKVPIHYPRERIERDLEYLINEVKSPDKLCIILIDEADQFAKKSCLSLLQFFHSFLYEEGILTFMAGSPTLMDDLTKISPPIKDRIPKIINMPPLSKDESYDLIRRRLEDAHIDGAEEFEPFTEEAIHKIVEECDGIPRKIIMTCSESISIAIRKGLTKIDEKVVKEAMHSLGISVGHQILNHLTPAQSEIVRAMAELGGSATVTQLAEYLKKSPSTIGTHLSDIYEMGYIYKEREGNNVYYKLSKELRDVLIGEDDELEM,not soluble
